One block for each molecule: values may come before it. Where no end group is shown, it is not given here.
Tests used:
TBL1 F26A (human) [1] = assay: SEC
TBL1 F26A (human) [2] = assay: NMR HSQC spectra
[3] = target: TBL1 wild type (gel filtration and HSQC; limits not stated) (human); assay: SEC
[4] = target: TBL1 wild type (gel filtration and HSQC; limits not stated) (human); assay: NMR HSQC spectra
[5] = target: T1, SMRT(167-207), GST removed (human, UniProt Q9Y618 167-207); assay: NMR structure
T1 chain (looked up): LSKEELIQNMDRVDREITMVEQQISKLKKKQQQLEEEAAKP

crystal structure = target: the molecule itself; assay: crystal structure
His6-TBL1(1-90) = target: T2, His6-TBL1(1-90) (human, UniProt O60907-2 1-90); assay: fluorescence polarisation
T2 sequence (looked up): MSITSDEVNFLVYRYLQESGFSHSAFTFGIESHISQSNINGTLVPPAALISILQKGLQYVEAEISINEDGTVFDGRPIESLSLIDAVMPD

- stoichiometry N (TBL1 F26A (human) [1]): 2
- stoichiometry N (TBL1 F26A (human) [2]): 2
Molecule: TBL1 F26A (domain or fragment)

- stoichiometry N [3]: 4
- stoichiometry N [4]: 4
Molecule: TBL1 wild type (gel filtration and HSQC; limits not stated) (domain or fragment)

- Kd (His6-TBL1(1-90)): 14.7 µM
B3: BODIPY labeled SMRT(227-260) (peptide, UniProt Q9Y618 227-260, looked up)
chain: VQIIYDENRKKAEAAHRILEGLGPQVELPLYNQP
modifications: also: BODIPY label, position not given here

More lines, now with the values behind:

B1: GPS2(53-90) (domain or fragment, human, UniProt Q13227 53-90, looked up)
chain: KKEMEERMSLEETKEQILKLEEKLLALQEEKHQLFLQL
- binding result [5]: binds

B2: His6-TBL1(1-71) (domain or fragment, human, UniProt O60907-2 1-71, looked up)
chain: MSITSDEVNFLVYRYLQESGFSHSAFTFGIESHISQSNINGTLVPPAALISILQKGLQYVEAEISINEDGT
- stoichiometry N (crystal structure): 4

B4: BODIPY labeled GPS2(1-52) (peptide, UniProt Q13227 1-52, looked up)
chain: MPALLERPKLSNAMARALHRHIMMERERKRQEEEEVDKMMEQKMKEEQERRK
modifications: also: BODIPY label, position not given here
- Kd (His6-TBL1(1-90)): 5.1 µM

— paper PMC3232451 (Nature structural & molecular biology, 2011)
